According to paper PMC4103192 (Biochemical and biophysical research communications, 2010):

Columns and labels:
[1] = target: the molecule itself; assay: SEC
[2] = target: human hepatic cytochrome P450 CYP3A4 in POPC Nanodiscs (human) (UniProt P08684); assay: SEC
[3] = target: human hepatic cytochrome P450 CYP3A4 in POPC Nanodiscs (human) (UniProt P08684); assay: steady-state enzyme activity titration

stoichiometry N (CPR per CYP3A4) [2]: 1
Kd [3]: 10 to 50 nM
B1: full-length rat NADPH dependent cytochrome P450 reductase (enzyme, UniProt P00388 1-678, looked up)
chain: MGDSHEDTSATMPEAVAEEVSLFSTTDMVLFSLIVGVLTYWFIFRKKKEEIPEFSKIQTTAPPVKESSFVEKMKKTGRNIIVFYGSQTGTAEEFANRLSKDAHRYGMRGMSADPEEYDLADLSSLPEIDKSLVVFCMATYGEGDPTDNAQDFYDWLQETDVDLTGVKFAVFGLGNKTYEHFNAMGKYVDQRLEQLGAQRIFELGLGDDDGNLEEDFITWREQFWPAVCEFFGVEATGEESSIRQYELVVHEDMDVAKVYTGEMGRLKSYENQKPPFDAKNPFLAAVTANRKLNQGTERHLMHLELDISDSKIRYESGDHVAVYPANDSALVNQIGEILGADLDVIMSLNNLDEESNKKHPFPCPTTYRTALTYYLDITNPPRTNVLYELAQYASEPSEQEHLHKMASSSGEGKELYLSWVVEARRHILAILQDYPSLRPPIDHLCELLPRLQARYYSIASSSKVHPNSVHICAVAVEYEAKSGRVNKGVATSWLRAKEPAGENGGRALVPMFVRKSQFRLPFKSTTPVIMVGPGTGIAPFMGFIQERAWLREQGKEVGETLLYYGCRRSDEDYLYREELARFHKDGALTQLNVAFSREQAHKVYVQHLLKRDREHLWKLIHEGGAHIYVCGDARNMAKDVQNTFYDIVAEFGPMEHTQAVDYVKKLMTKGRYSLDVWS
binding result [1]: binds
